# Experiments:
# Assay in all cases: IEDB peptide-MHC binding, purified MHC/competitive/radioactivity; filed as Kd, often an IC50 or EC50 that approximates it; ≥ and ≤ were set here for values at or beyond the usual limits of such assays
# HLA-A*31:01 = biological target: HLA-A*31:01
# HLA-A*68:01 = biological target: HLA-A*68:01
# HLA-A*03:01 = biological target: HLA-A*03:01
# HLA-A*33:01 = biological target: HLA-A*33:01
# HLA-A*11:01 = biological target: HLA-A*11:01
# [1] = source organism: SARS coronavirus Tor2
# [2] = source organism: Dengue virus 1 Brazil/97-11/1997
# [3] = source organism: Dengue virus 3 Singapore/8120/1995
# [4] = source organism: Dengue virus 2 Jamaica/1409/1983
# [5] = source organism: Vaccinia virus WR
# [6] = source organism: Dengue virus 4 Philippines/H241/1956
# [7] = source organism: Dengue virus 3 Martinique/1243/1999
# [8] = source organism: Mammarenavirus brazilense
# [9] = source organism: Mammarenavirus juninense
# [10] = source organism: Mammarenavirus whitewaterense
# [11] = source organism: Mammarenavirus guanaritoense
# [12] = source organism: Mammarenavirus machupoense
Sequence,Kd (HLA-A*31:01; [5]) [nM],Kd (HLA-A*68:01; [5]) [nM],Kd (HLA-A*03:01; [5]) [nM],Kd (HLA-A*33:01; [5]) [nM],Kd (HLA-A*11:01; [5]) [nM],other results
AINSVPWSK,,,,,,Kd (HLA-A*31:01; [1]): 1180 nM; Kd (HLA-A*68:01; [1]): 1780 nM; Kd (HLA-A*03:01; [1]): 13 nM; Kd (HLA-A*33:01; [1]): 10800 nM; Kd (HLA-A*11:01; [1]): 1.85 nM
ALFEPEREK,,,,,,Kd (HLA-A*03:01; [2]): 58.7 nM
ALILAYSNK,,,,,,Kd (HLA-A*31:01; [1]): 3800 nM; Kd (HLA-A*68:01; [1]): 4520 nM; Kd (HLA-A*03:01; [1]): 48.6 nM; Kd (HLA-A*33:01; [1]): ≥ 43300 nM; Kd (HLA-A*11:01; [1]): 19.6 nM
AMCLNTFVLK,,,,,,Kd (HLA-A*03:01; [3]): 9.37 nM; Kd (HLA-A*11:01; [3]): 23.3 nM
AVAPSMTMR,,,,,,Kd (HLA-A*11:01; [4]): 32.8 nM
AVLSAATETY,10400,3950,237,8800,271,
CTDESRDRK,≥ 54700,169,5960,≥ 77700,219,
DIKLDAVLDR,17900,473,≥ 41600,156,≥ 69800,
DSLLITNTK,18600,37.1,2710,5.16,661,
DVKASMLEKY,≥ 36000,558,≥ 24700,16700,4940,
EDTMTYKCPR,,,,,,Kd (HLA-A*33:01; [2]): 804 nM
EIIGGNDMY,≥ 77900,55,5310,≥ 77700,≥ 35100,
ELALTDVEK,9810,1.16,1560,5810,513,
ELVTRKCPQK,≥ 70000,1400,7420,≥ 32000,513,
EMYPRHRYSK,1150,27.8,126,326,1110,
ETFKIDAVR,107,1.61,≥ 28700,20.7,2730,
EVFGSTGDY,≥ 77900,14.2,3140,≥ 77700,13.1,
EVHWNYKER,,,,,,Kd (HLA-A*68:01; [6]): 15.2 nM
EYRLRGEAR,,,,,,Kd (HLA-A*33:01; [4]): 44.2 nM
FLKSGAVVK,4770,43.8,13.5,19500,347,
FMEMFFDYNK,720,231,552,2240,88,
FSNTIQSYK,77.7,5.84,25.5,2000,11,
FSTSAADIK,≥ 35800,2.57,2200,≥ 28900,222,

Sequence,Kd (HLA-A*31:01; [5]) [nM],Kd (HLA-A*68:01; [5]) [nM],Kd (HLA-A*03:01; [5]) [nM],Kd (HLA-A*33:01; [5]) [nM],Kd (HLA-A*11:01; [5]) [nM],other results
FVDINRNNK,2300,25.1,281,≥ 46800,50.8,
GADPNACDK,3840,90.6,≥ 37700,8360,6240,
GAGLAFSLMK,,,,,,Kd (HLA-A*11:01; [2]): 93.5 nM
GFFLRKLTSR,,,,,,Kd (HLA-A*31:01; [7]): 1.35 nM
GISLGLILLK,,,,,,Kd (HLA-A*03:01; [6]): 16.5 nM; Kd (HLA-A*11:01; [6]): 79.1 nM
GLLATNNVFR,,,,,,Kd (HLA-A*31:01; [1]): 487 nM; Kd (HLA-A*68:01; [1]): 794 nM; Kd (HLA-A*03:01; [1]): 428 nM; Kd (HLA-A*33:01; [1]): 5920 nM; Kd (HLA-A*11:01; [1]): 816 nM
GLLNGQGPMK,,,,,,Kd (HLA-A*03:01; [7]): 9.66 nM
GMSYSMCTGK,,,,,,Kd (HLA-A*03:01; [4]): 30.8 nM; Kd (HLA-A*11:01; [4]): 440 nM
GSFCTQLNR,,,,,,Kd (HLA-A*31:01; [1]): 51.1 nM; Kd (HLA-A*68:01; [1]): 229 nM; Kd (HLA-A*03:01; [1]): 1040 nM; Kd (HLA-A*33:01; [1]): ≥ 33100 nM; Kd (HLA-A*11:01; [1]): 76.1 nM
HSGVDVFYK,,,,,,Kd (HLA-A*11:01; [6]): 170 nM
IFSLKDTLKR,,,,,,Kd (HLA-A*33:01; [7]): 320 nM
IFVDTMSIY,6760,882,18300,≥ 29100,921,
IIKSDHEFVK,15700,1820,4270,≥ 70000,443,
IMDLHPGAGK,,,,,,Kd (HLA-A*03:01; [4]): 40.9 nM
ISFKSINKVY,9890,6590,2530,≥ 63300,12200,
ISKIYTLIYR,0.337,5.02,691,0.458,226,
ISQGAGWSLK,,,,,,Kd (HLA-A*03:01; [4]): 199 nM; Kd (HLA-A*11:01; [4]): 214 nM
ISYDPKFEK,,,,,,Kd (HLA-A*03:01; [6]): 114 nM; Kd (HLA-A*11:01; [6]): 101 nM
ITFLRPVLK,7.61,1.14,4.53,84.5,6.45,
ITLKIIETY,751,≥ 77700,≥ 78000,≥ 77700,≥ 77900,
IVTSLAIKNY,8820,1410,1110,5680,51.7,
KAERVIDPR,,,,,,Kd (HLA-A*31:01; [4]): 56.6 nM
KCFGNTALAK,,,,,,Kd (HLA-A*31:01; [8]): 972 nM; Kd (HLA-A*68:01; [8]): ≥ 22500 nM; Kd (HLA-A*03:01; [8]): 830 nM; Kd (HLA-A*33:01; [8]): ≥ 70000 nM; Kd (HLA-A*11:01; [8]): 8480 nM

Sequence,Kd (HLA-A*31:01; [5]) [nM],Kd (HLA-A*68:01; [5]) [nM],Kd (HLA-A*03:01; [5]) [nM],Kd (HLA-A*33:01; [5]) [nM],Kd (HLA-A*11:01; [5]) [nM],other results
KCFGNTAVAK,,,,,,Kd (HLA-A*31:01; [9]): 181 nM; Kd (HLA-A*68:01; [9]): 18800 nM; Kd (HLA-A*03:01; [9]): 579 nM; Kd (HLA-A*33:01; [9]): 1470 nM; Kd (HLA-A*11:01; [9]): 6460 nM
KIGHHVELQH,,,,,,Kd (HLA-A*31:01; [10]): 25.2 nM; Kd (HLA-A*68:01; [10]): ≥ 70100 nM; Kd (HLA-A*03:01; [10]): ≥ 47100 nM; Kd (HLA-A*33:01; [10]): ≥ 49800 nM; Kd (HLA-A*11:01; [10]): ≥ 69700 nM
KLQARNIQK,13.5,169,8.03,927,17.8,
KVSAQNISFK,433,3380,5070,3320,131,
LAIKNYYRK,783,12.7,≥ 45700,1440,75.9,
LAMGIMMLK,,,,,,Kd (HLA-A*68:01; [2]): 20.6 nM; Kd (HLA-A*03:01; [2]): 76.3 nM; Kd (HLA-A*11:01; [2]): 32.7 nM
LFLLFLEITY,3460,274,1960,9640,3720,
LLFADINGK,,,,,,Kd (HLA-A*31:01; [1]): 2560 nM; Kd (HLA-A*68:01; [1]): 120 nM; Kd (HLA-A*03:01; [1]): 30.8 nM; Kd (HLA-A*33:01; [1]): ≥ 50900 nM; Kd (HLA-A*11:01; [1]): 8.81 nM
LLGDSDSVAK,3580,10900,203,≥ 70000,584,
LMSGKGIGK,,,,,,Kd (HLA-A*03:01; [4]): 75.2 nM
LTALLSCIR,244,7.66,≥ 78000,1100,914,
LTNKHCLNNY,4420,≥ 21200,1380,≥ 66000,2070,
LTNTTTESR,,,,,,Kd (HLA-A*68:01; [4]): 73.6 nM
LTYQNKVVK,,,,,,Kd (HLA-A*03:01; [7]): 11.8 nM; Kd (HLA-A*11:01; [7]): 70.5 nM
MIIGHIGHHY,151,19.3,47,≥ 55400,103,
MLQGRGPLK,,,,,,Kd (HLA-A*03:01; [4]): ≤ 1 nM; Kd (HLA-A*11:01; [4]): 124 nM
MMFINSTCY,129,145,21.2,3930,159,
MMNRDKIPIY,10400,≥ 70200,1030,≥ 70000,3800,
MSHVKSVTK,20.1,9,18.6,1930,8.05,
MSMGDIITY,8570,1.85,134,13300,5.67,
NAPIKEFKAK,8830,187,15600,3310,≥ 27700,
NFFTELENK,7320,1280,≥ 69500,11300,1690,
NIILSKIPY,14400,778,1180,9760,552,

Sequence,Kd (HLA-A*31:01; [5]) [nM],Kd (HLA-A*68:01; [5]) [nM],Kd (HLA-A*03:01; [5]) [nM],Kd (HLA-A*33:01; [5]) [nM],Kd (HLA-A*11:01; [5]) [nM],other results
NISIIVLFQR,33.6,3.84,907,1400,670,
NIVTFINDY,14600,535,≥ 78000,≥ 77700,≥ 45900,
NLDPDNKMSY,≥ 41300,1460,950,≥ 65800,582,
NTMCTEETKR,13300,17.8,≥ 32200,4210,6410,
NVKKKNEGK,≥ 20400,142,6520,17600,≥ 29700,
NYVHCFRKPH,,,,,,Kd (HLA-A*31:01; [11]): 12000 nM; Kd (HLA-A*68:01; [11]): ≥ 70100 nM; Kd (HLA-A*03:01; [11]): ≥ 70000 nM; Kd (HLA-A*33:01; [11]): 1430 nM; Kd (HLA-A*11:01; [11]): ≥ 69700 nM
PVSMTYLYNK,6150,12900,1190,≥ 70000,107,
QFANVISKIY,1140,1950,3390,1200,8660,
RFWELVDKER,,,,,,Kd (HLA-A*31:01; [6]): 5.19 nM
RFWELVDRER,,,,,,Kd (HLA-A*31:01; [4]): 0.343 nM
RLGVRATRK,,,,,,Kd (HLA-A*68:01; source organism: Hepacivirus hominis): ≥ 80000 nM
RLKMDKLELK,,,,,,Kd (HLA-A*03:01; [7]): 34.6 nM
RMLNILNGRK,,,,,,Kd (HLA-A*03:01; [6]): 13.8 nM
RQMEGEGVFK,,,,,,Kd (HLA-A*03:01; source organism: Dengue virus 2 Peru/IQT2913/1996): 23.9 nM
RVIDPRRCLK,,,,,,Kd (HLA-A*31:01; [2]): 0.766 nM; Kd (HLA-A*68:01; [2]): 28 nM; Kd (HLA-A*03:01; [2]): 8.63 nM
SDGTFKIGLH,,,,,,Kd (HLA-A*31:01; [12]): ≥ 36100 nM; Kd (HLA-A*33:01; [12]): ≥ 47500 nM
SGNDIANCLR,,,,,,Kd (HLA-A*33:01; [2]): 141 nM
STGSQLAKR,,,,,,Kd (HLA-A*31:01; [2]): 215 nM
VQTKPGLFK,,,,,,Kd (HLA-A*03:01; [4]): 144 nM; Kd (HLA-A*11:01; [4]): 102 nM
VTFKTAHAK,,,,,,Kd (HLA-A*68:01; [2]): 43.9 nM; Kd (HLA-A*03:01; [2]): 4.15 nM; Kd (HLA-A*11:01; [2]): 89.7 nM
VTFKVPHAKR,,,,,,Kd (HLA-A*68:01; [6]): 21.5 nM
YQNKVVKVQR,,,,,,Kd (HLA-A*33:01; [7]): 701 nM
